Source: PMC11306395, “Structural basis for the interaction between human coronavirus HKU1 spike receptor binding domain and its receptor TMPRSS2” (Cell Discovery, 2024)

Target: T1, transmembrane serine protease 2 (TMPRSS2) ectodomain (human, UniProt O15393 106-492)
T1 construct: Transmembrane serine protease 2 (TMPRSS2), ectodomain; also called TMRPSS2; source: purified
Test: BLI; bio-layer interferometry titrations of RBD-TMPRSS2; which partner was immobilised and the conditions are not told
Conditions: both partners purified

T1 sequence (O15393 106-492): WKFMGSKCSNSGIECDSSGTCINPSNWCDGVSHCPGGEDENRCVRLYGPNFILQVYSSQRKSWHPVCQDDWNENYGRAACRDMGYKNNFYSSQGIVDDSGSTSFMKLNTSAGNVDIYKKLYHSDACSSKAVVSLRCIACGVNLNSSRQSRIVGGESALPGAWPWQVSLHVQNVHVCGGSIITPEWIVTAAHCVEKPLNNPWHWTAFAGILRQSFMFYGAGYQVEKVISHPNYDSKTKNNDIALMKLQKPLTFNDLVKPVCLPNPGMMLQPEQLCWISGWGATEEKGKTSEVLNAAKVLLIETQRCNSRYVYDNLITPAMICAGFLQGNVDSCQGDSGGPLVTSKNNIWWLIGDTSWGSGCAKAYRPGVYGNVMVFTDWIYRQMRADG

| Binder | Kd |
| --- | --- |
| HKU1-A (1A) spike S1 receptor-binding domain (domain or fragment, N-glycosylated; disulfides C504-C518 and C520-C533. Construct limits are only in the schematic (Fig. 1a), so they are taken from the paper's own deposited entity 8YOY (start and end shown match …)) SGFTVKPVATVHRRIPDLPDCDIDKWLNNFNVPSPLNWERKIFSNCNFNLSTLLRLVHTDSFSCNNFDESKIYGSCFKSIVLDKFAIPNSRRSDLQLGSSGFLQSSNYKIDTTSSSCQLYYSLPAINVTINNYNPSSWNRRYGFNNFNLSSHSVVYSRYCFSVNNTFCPCAKPSFASSCKSHKPPSASCPIGTNYRSCESTTVLDHTDWCRCSCLPDPITAYDPRSCSQKKSLVGVGEHCAGFGVDEEKCGVLDGSYNVSCLCSTDAFLGWSYDTCVSNNRCNIFSNFILNGINSGTTCSNDLLQPNTEVFTDVCVDYDLYGITGQGIFKEVSAVYYNSWQNLLYDSNGNIIGFKDFVTNKTYNIFPCYAG | 323 nM |
| HKU1-B (1B) spike S1 receptor-binding domain (domain or fragment, N-glycosylated; disulfides C504-C518 and C520-C533. Construct limits are only in the schematic (Fig. 1a), so they are taken from the paper's own deposited entity 8YQQ; the assayed construct may …) NLPDCDIDNWLNNVSVPSPLNWERRIFSNCNFNLSTLLRLVHVDSFSCNNLDKSKIFGSCFNSITVDKFAIPNRRRDDLQLGSSGFLQSSNYKIDISSSSCQLYYSLPLVNVTINNFNPSSWNRRYGFGSFNLSSYDVVYSDHCFSVNSDFCPCADPSVVNSCAKSKPPSAICPAGTKYRHCDLDTTLYVKNWCRCSCLPDPISTYSPNTCPQKKVVVGIGEHCPGLGINEEKCGTQLNHSSCFCSPDAFLGWSFDSCISNNRCNIFSNFIFNGINSGTTCSNDL | 170 nM |
